Reference: WO2012175740A1
Read-outs that look alike come from different tables or passages of the source.

Tests used:
[1] = target: cyno IgE c(epsilon)2-c(epsilon)3-c(epsilon)4 Fc fragment with C-terminal (His)10 tag (cynomolgus monkey); test: Alphascreen, competition with HuFc(epsilon)RI(alpha)Fc for cyno IgE Fc
[2] = target: cyno IgE c(epsilon)2-c(epsilon)3-c(epsilon)4 Fc fragment with C-terminal (His)10 tag (cynomolgus monkey); test: as above; remark: listed apart in the source

Chain of cyno IgE c(epsilon)2-c(epsilon)3-c(epsilon)4 Fc fragment with C-terminal (His)10 tag (cynomolgus monkey) (chain, as listed by the source): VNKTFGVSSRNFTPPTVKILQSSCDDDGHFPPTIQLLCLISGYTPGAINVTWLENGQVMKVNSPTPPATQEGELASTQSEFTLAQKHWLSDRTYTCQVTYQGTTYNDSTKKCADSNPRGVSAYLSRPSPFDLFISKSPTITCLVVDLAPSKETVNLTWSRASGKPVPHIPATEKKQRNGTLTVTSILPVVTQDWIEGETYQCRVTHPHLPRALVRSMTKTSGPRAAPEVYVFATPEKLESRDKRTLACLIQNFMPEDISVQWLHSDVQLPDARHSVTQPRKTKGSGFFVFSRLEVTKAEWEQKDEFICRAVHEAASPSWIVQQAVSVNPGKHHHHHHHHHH

% inhibition at 250 nM [1]: 99.3%
IC50 [1]: 1.39 nM
% inhibition at 250 nM [2]: 97.7%
IC50 [2]: 1.3 nM
Substance: Fab obtained by papain digestion of commercially obtained omalizumab
